Among the data in publication PMC2753297 are response values, retold here.

Changes are numbered by the printed parent chain. In names and notes the source's numbering stands.

The target in this assay is T1, ADAM10 (immunoprecipitated with anti-ADAM10 from HEK293T cells), O14672.
T1 chain: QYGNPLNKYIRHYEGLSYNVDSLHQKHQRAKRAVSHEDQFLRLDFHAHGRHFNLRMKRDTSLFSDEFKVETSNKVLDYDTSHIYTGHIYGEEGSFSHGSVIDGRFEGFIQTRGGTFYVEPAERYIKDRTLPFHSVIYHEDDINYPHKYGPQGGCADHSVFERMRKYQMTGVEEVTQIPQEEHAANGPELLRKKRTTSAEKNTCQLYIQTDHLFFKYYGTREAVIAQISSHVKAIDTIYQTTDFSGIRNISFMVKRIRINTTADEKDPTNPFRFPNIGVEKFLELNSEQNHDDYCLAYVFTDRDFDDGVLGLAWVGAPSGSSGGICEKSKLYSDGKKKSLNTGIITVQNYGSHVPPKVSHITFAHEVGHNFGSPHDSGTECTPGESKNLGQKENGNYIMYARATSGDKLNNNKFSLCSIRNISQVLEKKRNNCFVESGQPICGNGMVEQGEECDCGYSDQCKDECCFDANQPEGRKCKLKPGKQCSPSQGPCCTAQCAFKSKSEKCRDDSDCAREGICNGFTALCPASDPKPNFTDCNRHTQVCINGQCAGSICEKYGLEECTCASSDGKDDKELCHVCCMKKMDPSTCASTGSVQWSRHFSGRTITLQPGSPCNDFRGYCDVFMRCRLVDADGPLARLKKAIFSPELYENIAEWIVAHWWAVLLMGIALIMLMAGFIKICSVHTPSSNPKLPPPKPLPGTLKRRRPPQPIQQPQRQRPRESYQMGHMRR
Description: co-immunoprecipitation (ADAM10 IP, EphA3 immunoblot, quantified). Conditions: chain shown with the change; ephrin-A5-treated EphA3-transfected cells; n = 2 experiments; parent: est. 1.1; read off a plot; scale: ratio of EphA3 co-IP/lysate, EphA3[2YE] as internal reference. In general terms: In western blotting, separated proteins are transferred to a membrane and probed.

B1: Wt EphA3-GFP, P29320 Y596E; Y602E; K653M (protein)
chain: ELIPQPSNEVNLLDSKTIQGELGWISYPSHGWEEISGVDEHYTPIRTYQVCNVMDHSQNNWLRTNWVPRNSAQKIYVELKFTLRDCNSIPLVLGTCKETFNLYYMESDDDHGVKFREHQFTKIDTIAADESFTQMDLGDRILKLNTEIREVGPVNKKGFYLAFQDVGACVALVSVRVYFKKCPFTVKNLAMFPDTVPMDSQSLVEVRGSCVNNSKEEDPPRMYCSTEGEWLVPIGKCSCNAGYEERGFMCQACRPGFYKALDGNMKCAKCPPHSSTQEDGSMNCRCENNYFRADKDPPSMACTRPPSSPRNVISNINETSVILDWSWPLDTGGRKDVTFNIICKKCGWNIKQCEPCSPNVRFLPRQFGLTNTTVTVTDLLAHTNYTFEIDAVNGVSELSSPPRQFAAVSITTNQAAPSPVLTIKKDRTSRNSISLSWQEPEHPNGIILDYEVKYYEKQEQETSYTILRARGTNVTISSLKPDTIYVFQIRARTAAGYGTNSRKFEFETSPDSFSISGESSQVVMIAISAAVAIILLTVVIYVLIGRFCGYKSKHGADEKRLHFGNGHLKLPGLRTEVDPHTEEDPTQAVHEFAKELDATNISIDKVVGAGEFGEVCSGRLKLPSKKEISVAIMTLKVGYTEKQRRDFLGEASIMGQFDHPNIIRLEGVVTKSKPVMIVTEYMENGSLDSFLRKHDAQFTVIQLVGMLRGIASGMKYLSDMGYVHRDLAARNILINSNLVCKVSDFGLSRVLEDDPEAAYTTRGGKIPIRWTSPEAIAYRKFTSASDVWSYGIVLWEVMSYGERPYWEMSNQDVIKAVDEGYRLPPPMDCPAALYQLMLDCWQKDRNNRPKFEQIVSILDKLIRNPGSLKIITSAAARPSNLLLDQSNVDITTFRTTGDWLNGVWTAHCKEIFTGVEYSSCDTIAKISTDDMKKVGVTVVGPQKKIISSIKALETQSKNGPVPV
For B1, the response is 0.42.

B2: Wt EphA3-GFP, P29320 Y596E; Y602E (protein)
chain: B1 chain with M633K
Turning to B2, the response is 1.
